What was measured:
[1] = molecular target: mTOR-mLST8 complex (10xHis-TEV-mTOR with untagged mLST8) (human, UniProt P42345 1-2549; Q9BVC4 1-326); test: pull-down; WAC-3xFlag from Expi293 lysate purified and held on anti-Flag resin (washes incl. 5 mM ATP/5 mM MgCl2); purified prey added 20 min at 4 °C in 150 mM Tris pH 8, 300 mM KCl, 10% glycerol, 0.5 mM TCEP; elution with 3xFlag peptide; SDS/PAGE and western blot; conditions: both partners purified
RUVBL1-RUVBL2 complex = molecular target: T1, RUVBL1-RUVBL2 complex (human, UniProt Q9Y265 1-456; Q9Y230 1-463); test: as above; conditions: both partners purified
T1 construct: RUVBL1 (RuvB-like 1), human, N-terminal His-tag and TEV site; RUVBL2 (RuvB-like 2), human, untagged; also called RUVBL1‐RUVBL2 module; RUVBL1‐RUVBL2 ATPase module; source: E. coli BL21 (DE3), co-expressed, purified (HisTrap HP; an untagged form by TEV digestion and a second HisTrap step)
T1 sequence (Q9Y265 whole entry, chain 1 of 2): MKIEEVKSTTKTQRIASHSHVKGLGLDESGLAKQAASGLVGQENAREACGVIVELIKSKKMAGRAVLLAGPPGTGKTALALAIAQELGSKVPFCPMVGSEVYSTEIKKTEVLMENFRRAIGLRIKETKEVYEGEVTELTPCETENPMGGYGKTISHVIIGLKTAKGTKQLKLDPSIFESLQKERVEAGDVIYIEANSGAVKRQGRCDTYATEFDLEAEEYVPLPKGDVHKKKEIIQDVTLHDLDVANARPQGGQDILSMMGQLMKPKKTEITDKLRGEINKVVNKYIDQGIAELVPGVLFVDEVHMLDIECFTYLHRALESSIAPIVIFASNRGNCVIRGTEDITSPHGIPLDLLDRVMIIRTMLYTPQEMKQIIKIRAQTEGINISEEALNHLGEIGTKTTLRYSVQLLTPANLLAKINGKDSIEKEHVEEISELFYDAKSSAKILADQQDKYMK
T1 sequence (Q9Y230 whole entry, chain 2 of 2): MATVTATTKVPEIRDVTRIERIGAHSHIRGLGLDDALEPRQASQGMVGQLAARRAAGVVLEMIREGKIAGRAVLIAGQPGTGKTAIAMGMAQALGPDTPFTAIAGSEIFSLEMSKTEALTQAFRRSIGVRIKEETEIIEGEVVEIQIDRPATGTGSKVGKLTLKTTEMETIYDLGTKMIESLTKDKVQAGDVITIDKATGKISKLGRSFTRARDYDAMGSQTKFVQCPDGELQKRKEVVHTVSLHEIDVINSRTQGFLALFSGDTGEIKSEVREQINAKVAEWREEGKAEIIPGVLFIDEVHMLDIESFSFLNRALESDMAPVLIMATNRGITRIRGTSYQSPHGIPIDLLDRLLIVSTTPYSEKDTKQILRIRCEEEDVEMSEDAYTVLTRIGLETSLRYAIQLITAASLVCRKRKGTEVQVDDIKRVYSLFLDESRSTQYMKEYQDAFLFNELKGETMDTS

B1: WAC-3xFlag (human WAC with C-terminal 3xFlag tag, pACEMam-WAC-3C-3xFlag) (natural protein, UniProt Q9BTA9-1 1-647, looked up)
chain: MVMYARKQQRLSDGCHDRRGDSQPYQALKYSSKSHPSSGDHRHEKMRDAGDPSPPNKMLRRSDSPENKYSDSTGHSKAKNVHTHRVRERDGGTSYSPQENSHNHSALHSSNSHSSNPSNNPSKTSDAPYDSADDWSEHISSSGKKYYYNCRTEVSQWEKPKEWLEREQRQKEANKMAVNSFPKDRDYRREVMQATATSGFASGMEDKHSSDASSLLPQNILSQTSRHNDRDYRLPRAETHSSSTPVQHPIKPVVHPTATPSTVPSSPFTLQSDHQPKKSFDANGASTLSKLPTPTSSVPAQKTERKESTSGDKPVSHSCTTPSTSSASGLNPTSAPPTSASAVPVSPVPQSPIPPLLQDPNLLRQLLPALQATLQLNNSNVDISKINEVLTAAVTQASLQSIIHKFLTAGPSAFNITSLISQAAQLSTQAQPSNQSPMSLTSDASSPRSYVSPRISTPQTNTVPIKPLISTPPVSSQPKVSTPVVKQGPVSQSATQQPVTADKQQGHEPVSPRSLQRSSSQRSPSPGPNHTSNSSNASNATVVPQNSSARSTCSLTPALAAHFSENLIKHVQGWPADHAEKQASRLREEAHNMGTIHMSEICTELKNLRSLVRVCEIQATLREQRILFLRQQIKELEKLKNQNSFMV
notes: WAC (WW domain-containing adaptor with coiled-coil), human, cDNA NM_016628.5 from GenScript (clone OHu28471); An HRV 3C protease site stands between WAC and the 3xFlag tag; also called WW domain-containing adaptor with coiled-coil; WAC lysate; source: Expi293 cells, overexpressed; purified on anti-Flag resin and kept on the beads; not shown: 3xFlag, C-terminal, kept
What does the source list for B1?
binding result [1]: binds; binding result (RUVBL1-RUVBL2 complex): binds

Reference: article PMC12582974, “Characterization of WAC interactions with R2TP and TTT chaperone complexes linking glucose and glutamine availability to mTORC1 activity” (FEBS Open Bio, 2025)
